The text below walks through data of paper PMC4072346.

Substrate in this data set: O=[N+]([O-])c1ccc(OP(=O)(O)O)cc1
Briefly: purified protein. Type of data set: biochemical, Homo sapiens. The settings on record: pH 7.5.

B1: PHLPP2 (Homo sapiens) (protein)
chain: SHGLAEMAGQRNKLCVSALAMDSFAEGVGAVYGMFDGDRNEELPRLLQCTMADVLLEEVQQSTNDTVFMANTFLVSHRKLGMAGQKLGSSALLCYIRPDTADPASSFSLTVANVGTCQAVLCRGGKPVPLSKVFSLEQDPEEAQRVKDQKAIITEDNKVNGVTCCTRMLGCTYLYPWILPKPHISSTPLTIQDELLILGNKALWEHLSYTEAVNAVRHVQDPLAAAKKLCTLAQSYGCQDNVGAMVVYL
B1: the Km entry is recorded as “(1.3 ± 0.2) × 10^–3 M”, the turnover number (kcat) was determined as 0.37 ± 0.08 s⁻¹ and the catalytic efficiency (kcat/Km) came to 285 ± 9 M⁻¹ s⁻¹.

B2: PHLPP1 (Homo sapiens) (protein)
chain: PRLVLDHKTLELLNNIRCFKIDQPSTGDASGAPAVWSHGYTEASGVKNKLCVAALSVNNFCDNREALYGVFDGDRNVEVPYLLQCTMSDILAEELQKTKNEEEYMVNTFIVMQRKLGTAGQKLGGAAVLCHIKHDPVDPGGSFTLTSANVGKCQTVLCRNGKPLPLSRSYIMSCEEELKRIKQHKAIITEDGKVNGVTESTRILGYTFLHPSVVPRPHVQSVLLTPQDEFFILGSKGLWDSLSVEEAVEAVRNVPDALAAAKKLCTLAQSYGCHDSISAVVVQLSVTEDSFCCCELSAGGAVPPPSPGIFPPSVNMVIKDRPSDGLGVPSSSSGMASEISSELSTSEMSSEVGSTASDEPPPGA
B2: the Km entry is “(2.1 ± 0.2) × 10^–3 M”, the kcat stood at 0.0018 ± 0.0003 s⁻¹ and the kcat/Km came to 0.9 ± 0.2 M⁻¹ s⁻¹.
